In patent US20130210077:

Tests used:
[1] = test system: CsnR (ROK-family transcriptional repressor, SSPG_04872) (Streptomyces lividans TK24); experiment: competition
[2] = test system: CsnR (ROK-family transcriptional repressor, SSPG_04872) (Streptomyces lividans TK24); experiment: EMSA; settings: 10 mM HEPES pH 7.9, 150 mM KCl, 10% glycerol, poly(dI-dC), room temperature

Work on “CCTCTTCTGGTAGGAAACTGTCCGATCAGT (double strand) [csnA-MM]” yielded an IC50 ([1]; competitor vs labeled csnA-WT, +2 and +6 mutations, lost most affinity, SE logIC50 0.33) of 105 nM.
Work on “CCTCTTCTGGTAGGAAACTGTCCTATCAGT (double strand) [csnA-M1]” yielded an IC50 ([1]; competitor vs labeled csnA-WT, +2 mutation, SE logIC50 0.13) of 52.1 nM.
For “CCTCTTCTGGTAGGAAACTTTCCGATCAGT (double strand) [csnA-M2]”, the IC50 ([1]; competitor vs labeled csnA-WT, +6 mutation, SE logIC50 0.08) was 2.7 nM.
Work on “CCTCTTCTGGTAGGAAACTTTCCTATCAGT (double strand) [csnA-WT]” yielded a Kd ([2]; SE 0.009 nM) of 0.032 nM and an IC50 ([1]; unlabeled competitor vs 0.03 nM labeled csnA-WT, SE logIC50 0.11) of 1.3 nM.
“CTCCAGCCAACAGGAAACTTTCCTAACAGA (double strand) [csnR-WT]” gave a Kd ([2]; SE 0.008 nM) of 0.04 nM.
